Data published in patent publication US9458427B2, “IFNγR2 compositions and methods of inhibiting neuronal cell death” (Case Western Reserve University, priority 2009, dated 2016).

T1: human Bak (Homo sapiens, UniProt Q16611)
T1 construct: expressed in transfected cells; host or cells: HEK293
T1 sequence (Q16611 1-211): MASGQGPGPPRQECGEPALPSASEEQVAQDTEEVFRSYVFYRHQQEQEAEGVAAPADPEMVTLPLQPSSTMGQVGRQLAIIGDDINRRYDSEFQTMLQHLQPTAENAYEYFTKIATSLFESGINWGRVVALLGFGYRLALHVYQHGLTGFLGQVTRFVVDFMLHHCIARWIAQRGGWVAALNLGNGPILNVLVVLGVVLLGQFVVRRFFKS


What was measured:
[1] = molecular target: T2, Mouse Bax (Mus musculus, UniProt Q07813); test: Yeast-based functional screening for Bax inhibitors; assay type: cell-based; settings: yeast strain EGY48, galactose-inducible mouse Bax
T2 construct: expressed in transfected cells; host or cells: yeast strain EGY48, pGilda vector
T2 sequence (Q07813 whole entry): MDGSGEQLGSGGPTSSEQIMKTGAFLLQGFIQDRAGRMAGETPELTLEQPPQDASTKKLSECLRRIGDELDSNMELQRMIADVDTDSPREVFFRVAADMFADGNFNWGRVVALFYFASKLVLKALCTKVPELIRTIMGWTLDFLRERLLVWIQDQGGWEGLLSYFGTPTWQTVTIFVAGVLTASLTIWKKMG
Procedure: The yeast strain EGY48 was used for the yeast functional screening for Bax inhibitors. Mouse Bax was expressed under a galactose-inducible promoter using pGilda vector as reported. Yeast expression libraries of cDNAs of mouse brain and a human cell line (HeLa) were prepared in pYES2 and pJG4-5 vectors, respectively.
To perform a yeast-based functional screen for Bax inhibitors, yeast expression cDNA libraries were generated from purified mRNAs of human HeLa cells and mouse brain tissue using pJG4-5 and pYES2 vectors, respectively. […] IFNγR2263-337 contains a Jak2-binding domain (amino acids 284-295). To determine the role of the Jak2-binding domain in Bax inhibition, two IFNγR2 mutants were generated (FIG. 1B) and tested for their anti-Bax activity in human cells as described below.

[2] = molecular target: T3, human Bax ΔTM (Homo sapiens, UniProt Q07812); test: Binding of recombinant proteins (pull-down on anti-Bax beads); settings: purified recombinant proteins, IFNγR2263-337 tagged with thioredoxin (rTrx)
T3 construct: Bax C terminal transmembrane truncated human Bax; His tag (on MBP) (N, cleaved yes); made in house
T3 sequence (Q07812 1-171 limits assumed, stated change not applied): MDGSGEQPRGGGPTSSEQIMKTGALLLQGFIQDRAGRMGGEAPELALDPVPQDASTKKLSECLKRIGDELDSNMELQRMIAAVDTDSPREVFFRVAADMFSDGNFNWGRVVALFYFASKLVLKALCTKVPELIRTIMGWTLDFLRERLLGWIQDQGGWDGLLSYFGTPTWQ
From the text: Recombinant human Bax ΔTM (Bax C terminal transmembrane truncated human Bax) was produced by using pHMTc vector downstream of maltose binding protein (MBP), separated by the TEV protease site. Overexpressed MBP-Bax was purified through a maltose-binding column (NEB) and subsequently cleaved by TEV protease (Invitrogen), followed by Ni-affinity purification to remove the protease and the His-tagged MBP. IFNγR2 cytoplamic domain (amino acids 263 337) was fused with thioredoxin (rTrx) to increase the recovery rate from bacterial lysates. The production and the purification of this fusion protein were performed by Protein X Laboratory (San Diego, Calif.). Recombinant Bax (25 ng) was loaded onto Sepharose G beads pre-equilibrated with anti-Bax antibody (Bax B9, Santa Cruz) or pre-immune IgG (control IgG) at 4° C. for 2 h. The excess Bax molecules were washed 3 times with buffer (50 mM phosphate buffer, pH 7.4). Recombinant IFNγR2 (263-337)-rTrx (25 ng) was added to the beads preloaded with Bax and anti-Bax or control IgG. Beads and IFNγR2263-337-rTrx were incubated at 4° C. for 2 h. After the incubation, beads were extensively washed with the loading buffer (50 mM phosphate buffer, pH 7.4). Beads were boiled in Laemmli buffer, and the supernatant was collected as a sample. Samples were analyzed by western blot using anti IFNγR2 antibody (C20, Santa Cruz) and Bax (N20, Santa Cruz).

[3] = tested on: HT1080 (IFNγR2 null mutant and JAK2 null mutant) cells; test: Etoposide-induced apoptosis in HT1080-derived IFNγR2 null and Jak2 null cells (Hoechst nuclear staining); assay type: cell-based, human; settings: cells lacking IFNγR2 and Jak2, 10 μM etoposide for 24 h
Procedure: HT1080 (wild type, IFNγR2 null mutant and JAK2 null mutant) cells were cultured in Dulbecco's Modified Eagle's Medium (DMEM) supplemented with 10% fetal bovine serum (FBS). HeLa, Human Embryonic Kidney (HEK) 293 and HEK293T cells were purchased from ATCC, and cultured in DMEM supplemented with 10% FBS. LNCap and PC3 cells were purchased from ATCC and cultured in DMEM F12 medium supplemented with 10% FBS. RWPE1 and RWPE2 were purchased from ATCC and cultured in keratinocytes-SFM plus supplements medium (Gibco). Primary mammary epithelial (4A100) cultures were derived from organoids isolated from discarded mammary tissue acquired from patients undergoing reduction mammoplasty surgery. Anonymized specimens were acquired from patients who had given written consent, through the Tissue Procurement and Histology Core Facility of the Case Comprehensive Cancer Center (Case), under a Case CCC IRB approved protocol. Primary epithelial cultures were grown in M87A+X medium. Human HME1 cells (Clontech) were grown in medium 171 with mammary epithelial growth supplement (Cascade Biologics) and penicillin-streptomycin.42 Human breast cancer cell line MDA-MD468 was cultured in RPMI, 5% FBS, supplemented with L-glutamine, penicillin-streptomycin and fungizone (Gibco). […]
Cells were cultured overnight in DMEM supplemented with 10% FBS. […] Transfection efficiency was analyzed by the expression of the EGFP-tagged proteins.
(§1) Apoptosis was induced by transfecting the cells with pcDNA3-human Bax, or pcDNA3-human Bak, or pcDNA3-human Bim EL, or by treatment with etoposide (10 μM) or staurosporine (100 nM). To determine the induction of apoptosis by different apoptotic stresses, cells were stained with Hoechst 33258 dye, and the numbers of cells with apoptotic nuclei were counted using fluorescence microscopy. Three hundred cells were analyzed in triplicate samples. […] Caspase activity were measured by using a fluorogenic caspase 3 substrate II (Calbiochem), IFNγR2 constructs were cloned in pEGFP-C2 (IFNγR2wild type, IFNγR21-295 and IFNγR2296-337) vector.

[4] = tested on: Caspase 3; test: Etoposide-induced Caspase 3 activation in IFNγR2 null cells; assay type: cell-based, human; settings: 10 μM etoposide for 24 h, plasmid-mediated expression
Procedure: as §1

[5] = tested on: human Bim EL; test: Apoptosis induced by Bim overexpression in HEK293T cells; assay type: cell-based; settings: 24 h after transfection
Procedure: (§2) Cells were cultured overnight in DMEM supplemented with 10% FBS. The transfections were performed using […]® (Qiagen, Valencia, Calif.) in accordance with the manufacturer's instructions. Transfection efficiency was analyzed by the expression of the EGFP-tagged proteins.
as §1
(§3) For Bax, Bak or Bim EL overexpression, cells were transfected with either 1 μg pcDNA3-human Bax, 1 μg pcDNA3-human Bak, or 1 μg pcDNA3 human Bim EL, and 4 μg of pEGFP plasmid encoding IFNγR2, and the apoptosis or caspase activity was determined 24 h after the transfection.

[6] = molecular target: T1, human Bak; test: Apoptosis induced by Bak overexpression in HEK293 cells; assay type: cell-based; settings: 24 h after transfection
Procedure: as §2, §1, §3

[7] = molecular target: T4, Bax (Homo sapiens, UniProt Q07812); test: Staurosporine-induced Bax activation in HeLa cells (6A7 antibody immunostaining); assay type: cell-based; parameters: endogenous in cells; host or cells: HeLa; settings: staurosporine 100 nM, 3 h
T4 sequence (Q07812 whole entry): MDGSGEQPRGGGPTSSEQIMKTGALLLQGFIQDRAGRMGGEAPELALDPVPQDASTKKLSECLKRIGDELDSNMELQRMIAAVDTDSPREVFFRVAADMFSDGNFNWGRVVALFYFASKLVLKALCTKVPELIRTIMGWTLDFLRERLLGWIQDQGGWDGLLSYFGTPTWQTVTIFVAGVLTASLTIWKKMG
Procedure: HeLa cells were transiently transfected with pEGFP-C2-IFNγR2 (wild type 1-295, or 296-337) using […]® (Qiagen, Valencia, Calif.) in accordance with the manufacturer's instructions. Four micograms of the plasmid were used to transfect cells cultured in 6-cm diameter dishes. After 24 h of transfection, the cells were treated with staurosporine (100 nM) for 3 h. Then, the cells were washed with phosphate buffer pH 7.4 (PBS), fixed using paraformaldehyde (1%), permeabilized with Triton X-100 (0.02%), blocked with goat serum, and the activation of Bax was analyzed by immunocytochemistry using monoclonal Bax 6A7 antibody (BDPharmingen) and ALEXA FLUOR® 568-labeled anti-mouse IgG secondary antibody (Invitrogen).

[8] = molecular target: T4, Bax; test: Apoptosis induced by Bax overexpression in HEK293 cells (Hoechst nuclear staining); assay type: cell-based; parameters: expressed in transfected cells; host or cells: HEK293; settings: HEK293 cells co-transfected with pcDNA3-h Bax and pEGFP-C2-IFNγR2 construct, 24 h after transfection
Procedure: as §2, §1, §3

Molecule	Suppression of Bax in yeast (rescue of yeast growth from Bax expression) [1]	Direct interaction with BaxΔTM [2]	Inhibition of etoposide-induced apoptosis [3]	Inhibition of etoposide-induced Caspase 3 activation [4]	Inhibition of apoptosis induced by Bim overexpression [5]	Rescue from apoptosis induced by Bak overexpression [6]	Inhibition of STS-induced Bax activation (6A7 Ab-positive cells in GFP-positive cells) [7]	Inhibition of apoptosis induced by Bax overexpression [8]
IFNγR2263-337: cytoplasmic domain of IFNγR2 (amino acids 263-337); recombinant form fused with thioredoxin (rTrx) (protein, left off: large carriers) AGACFFLVLKYRGLIKYWFHTPPSIPLQIEEYLKDPTQPILEALDKDSSPKDDVWDSVSIISFPEKEQEDVLQTL	Bax suppressor	confirmed						
IFNγR2wild type: interferon gamma receptor beta chain, full length, expressed from pEGFP-C2 plasmid as EGFP fusion (protein, left off: large carriers, interferon gamma receptor beta chain, full length, expressed from pEGFP-C2 plasmid as EGFP fusion) APPDPLSQLPAPQHPKIRLYNAEQVLSWEPVALSNSTRPVVYQVQFKYTDSKWFTADIMSIGVNCTQITATECDFTAASPSAGFPMDFNVTLRLRAELGALHSAWVTMPWFQHYRNVTVGPPENIEVTPGEGSLIIRFSSPFDIADTSTAFFCYYVHYWEKGGIQQVKGPFRSNSISLDNLKPSRVYCLQVQAQLLWNKSNIFRVGHLSNISCYETMADASTELQQVILISVGTFSLLSVLAGACFFLVLKYRGLIKYWFHTPPSIPLQIEEYLKDPTQPILEALDKDSSPKDDVWDSVSIISFPEKEQEDVLQTL			able to inhibit etoposide-induced apoptosis	inhibited etoposide-induced Caspase 3 activation	able to inhibit apoptosis induced by Bim overexpression	could not rescue cells from apoptosis induced by Bak overexpression	inhibited STS-induced Bax activation	able to inhibit apoptosis induced by Bax overexpression
